Values of other authors as cited in publication PMC8910669.

Molecular target: SARS-CoV-2 spike RBD RBD (Severe acute respiratory syndrome coronavirus 2) (UniProt P0DTC2)

Substance: hBD-2 (from UniProt O15263)
- Kd: 0.3 µM
